Results on 2 molecules are retold here after patent US20210333284A1, “METHODS AND MATERIALS FOR LARGE-SCALE ASSESSMENT OF LIGAND BINDING SELECTIVITY OF G-QUADRUPLEX RECOGNITION USING CUSTOM G4 MICROARRAYS” (Purdue Research Foundation, priority 2020, published 2021).

This assay deals with G4 sequences and non-G4 ssDNA controls on Design 3 microarray. Briefly: Custom G4 DNA microarray, direct binding by fluorescence intensity. Also noted: species or system human. The source says: Three Agilent DNA microarrays (TABLE 1) were designed, each with four identical sectors that contain ca.177,440 ssDNA 60-mers to examine G4-binding specificity. Arrays were designed with 9-73 replicates of each unique sequence to ensure statistical significance (TABLE 1). Each microarray contains different sets of G4 variants designed to examine several sequence parameters that affect G4 formation and binding specificity such as loop length (Design 1), loop sequence (Design 2), tail sequence (Design 2), and single nucleotide variants of six known G4s (Design 3). All microarrays include a set of 19 sequences from human telomeres and oncogene promoters known to form G4s with various topologies as positive controls (TABLE 2). Designs 2 and 3 have a set of 295 additional G4-forming sequences from the literature.^30 For the loop length variants, the length of the tails and loops of four different MYC G4 sequences (MYC Pu27, MYC Pu18ntd, MYC Pu22, and MYC Pu22 NMR mutant) was increased up to five times their length. Loop and tail sequences were varied using A, T, G, and C polynucleotide stretches and a subset of combinations. For the loop sequence variants, 4,096 sequences of the form NGGGNGGGNNGGGNGGGN (SEQ ID NO: 2) and 64 variants of the form GGGNGGGNGGGNGGG (SEQ ID NO: 1) were generated. For the tail variants, 256 versions of the major MYC G4 with all possible dinucleotide tails ([…] (SEQ ID NO: 3)) were generated. […]
The binding specificities of several molecules were evaluated. […] Binding of each molecule is measured by detection of fluorescence intensity at each of the microarray features. […] Cellular proteins were expressed as chimeric proteins containing GST, and binding for these proteins was detected using an anti-GST antibody conjugated with Cy5 (Materials and Methods). […] For Cy5-PDS, robust binding is observed at 1 μM, with fluorescence intensities ranging over 100-fold between strongest and weakest bound DNA features. The fluorescence-binding intensities of Cy5-PDS are proportional to the concentration of pyridostatin used). […]

B1: DHX36: GST-tagged human DHX36/G4R1/MLEL1 helicase (protein, listed as Homo sapiens)
chain: MSYDYHQNWGRDGGPRSSGGGYGGGPAGGHGGNRGSGGGGGGGGGGRGGRGRHPGHLKGREIGMWYAKKQGQKNKEAERQERAVVHMDERREEQIVQLLNSVQAKNDKESEAQISWFAPEDHGYGTEVSTKNTPCSENKLDIQEKKLINQEKKMFRIRNRSYIDRDSEYLLQENEPDGTLDQKLLEDLQKKKNDLRYIEMQHFREKLPSYGMQKELVNLIDNHQVTVISGETGCGKTTQVTQFILDNYIERGKGSACRIVCTQPRRISAISVAERVAAERAESCGSGNSTGYQIRLQSRLPRKQGSILYCTTGIILQWLQSDPYLSSVSHIVLDEIHERNLQSDVLMTVVKDLLNFRSDLKVILMSATLNAEKFSEYFGNCPMIHIPGFTFPVVEYLLEDVIEKIRYVPEQKEHRSQFKRGFMQGHVNRQEKEEKEAIYKERWPDYVRELRRRYSASTVDVIEMMEDDKVDLNLIVALIRYIVLEEEDGAILVFLPGWDNISTLHDLLMSQVMFKSDKFLIIPLHSLMPTVNQTQVFKRTPPGVRKIVIATNIAETSITIDDVVYVIDGGKIKETHFDTQNNISTMSAEWVSKANAKQRKGRAGRVQPGHCYHLYNGLRASLLDDYQLPEILRTPLEELCLQIKILRLGGIAYFLSRLMDPPSNEAVLLSIRHLMELNALDKQEELTPLGVHLARLPVEPHIGKMILFGALFCCLDPVLTIAASLSFKDPFVIPLGKEKIADARRKELAKDTRSDHLTVVNAFEGWEEARRRGFRYEKDYCWEYFLSSNTLQMLHNMKGQFAEHLLGAGFVSSRNPKDPESNINSDNEKIIKAVICAGLYPKVAKIRLNLGKKRKMVKVYTKTDGLVAVHPKSVNVEQTDFHYNWLIYHLKMRTSSIYLYDCTEVSPYCLLFFGGDISIQKDNDQETIAVDEWIVFQSPARIAHLVKELRKELDILLQEKIESPHPVDWNDTKSRDCAVLSAIIDLIKTQEKATPRNFPPRFQDGYYS
modifications: GST tag
notes: GST-tagged human DHX36/G4R1/MLEL1 helicase
For the molecule B1, the “binding specificity, G4 vs non-G4 ssDNA sequences” value was “bind only G4 sequences”.

B2: FANCJ: GST-tagged human BRCA1-binding helicase-like protein / Fanconi anemia group J protein (protein, listed as Homo sapiens)
chain: MSSMWSEYTIGGVKIYFPYKAYPSQLAMMNSILRGLNSKQHCLLESPTGSGKSLALLCSALAWQQSLSGKPADEGVSEKAEVQLSCCCACHSKDFTNNDMNQGTSRHFNYPSTPPSERNGTSSTCQDSPEKTTLAAKLSAKKQASIYRDENDDFQVEKKRIRPLETTQQIRKRHCFGTEVHNLDAKVDSGKTVKLNSPLEKINSFSPQKPPGHCSRCCCSTKQGNSQESSNTIKKDHTGKSKIPKIYFGTRTHKQIAQITRELRRTAYSGVPMTILSSRDHTCVHPEVVGNFNRNEKCMELLDGKNGKSCYFYHGVHKISDQHTLQTFQGMCKAWDIEELVSLGKKLKACPYYTARELIQDADIIFCPYNYLLDAQIRESMDLNLKEQVVILDEAHNIEDCARESASYSVTEVQLRFARDELDSMVNNNIRKKDHEPLRAVCCSLINWLEANAEYLVERDYESACKIWSGNEMLLTLHKMGITTATFPILQGHFSAVLQKEEKISPIYGKEEAREVPVISASTQIMLKGLFMVLDYLFRQNSRFADDYKIAIQQTYSWTNQIDISDKNGLLVLPKNKKRSRQKTAVHVLNFWCLNPAVAFSDINGKVQTIVLTSGTLSPMKSFSSELGVTFTIQLEANHIIKNSQVWVGTIGSGPKGRNLCATFQNTETFEFQDEVGALLLSVCQTVSQGILCFLPSYKLLEKLKERWLSTGLWHNLELVKTVIVEPQGGEKTNFDELLQVYYDAIKYKGEKDGALLVAVCRGKVSEGLDFSDDNARAVITIGIPFPNVKDLQVELKRQYNDHHSKLRGLLPGRQWYEIQAYRALNQALGRCIRHRNDWGALILVDDRFRNNPSRYISGLSKWVRQQIQHHSTFESALESLAEFSKKHQKVLNVSIKDRTNIQDNESTLEVTSLKYSTPPYLLEAASHLSPENFVEDEAKICVQELQCPKIITKNSPLPSSIISRKEKNDPVFLEEAGKAEKIVISRSTSPTFNKQTKRVSWSSFNSLGQYFTGKIPKATPELGSSENSASSPPRFKTEKMESKTVLPFTDKCESSNLTVNTSFGSCPQSETIISSLKIDATLTRKNHSEHPLCSEEALDPDIELSLVSEEDKQSTSNRDFETEAEDESIYFTPELYDPEDTDEEKNDLAETDRGNRLANNSDCILAKDLFEIRTIKEVDSAREVKAEDCIDTKLNGILHIEESKIDDIDGNVKTTWINELELGKTHEIEIKNFKPSPSKNKGMFPGFK
modifications: GST tag
With B2, the “binding specificity, G4 vs non-G4 ssDNA sequences” value is reported as “also bind other ssDNAs in addition to folded G4s”.
